Article PMC3985934 (Biochemistry, 2014)
Like-named read-outs stand apart in the source and are kept apart here.

Key:
AUC [1] = biological target: the molecule itself; assay: AUC
AUC [2] = biological target: the molecule itself; assay: AUC; remark: listed apart in the source

Protein	stoichiometry N (AUC [1])	stoichiometry N (AUC [2])
Rhizobium etli pyruvate carboxylase, wild type (enzyme, biotin prosthetic group (enzymic biotin; residue not given)) PISKILVANRSEIAIRVFRAANELGIKTVAIWAEEDKLALHRFKADESYQVGRGPHLARDLGPIESYLSIDEVIRVAKLSGADAIHPGYGLLSESPEFVDACNKAGIIFIGPKADTMRQLGNKVAARNLAISVGVPVVPATEPLPDDMAEVAKMAAAIGYPVMLKASWGGGGRGMRVIRSEADLAKEVTEAKREAMAAFGKDEVYLEKLVERARHVESQILGDTHGNVVHLFERDCSVQRRNQKVVERAPAPYLSEAQRQELAAYSLKIAGATNYIGAGTVEYLMDADTGKFYFIEVNPRIQVEHTVTEVVTGIDIVKAQIHILDGAAIGTPQSGVPNQEDIRLNGHALQCRVTTEDPEHNFIPDYGRITAYRSASGFGIRLDGGTSYSGAIITRYYDPLLVKVTAWAPNPLEAISRMDRALREFRIRGVATNLTFLEAIIGHPKFRDNSYTTRFIDTTPELFQQVKRQDRATKLLTYLADVTVNGHPEAKDRPKPLENAARPVVPYANGNGVKDGTKQLLDTLGPKKFGEWMRNEKRVLLTDTTMRDGHQSLLATRMRTYDIARIAGTYSHALPNLLSLECWGGATFDVSMRFLTEDPWERLALIREGAPNLLLQMLLRGANGVGYTNYPDNVVKYFVRQAAKGGIDLFRVFDCLNWVENMRVSMDAIAEENKLCEAAICYTGDILNSARPKYDLKYYTNLAVELEKAGAHIIAVKDMAGLLKPAAAKVLFKALREATGLPIHFHTHDTSGIAAATVLAAVEAGVDAVDAAMDALSGNTSQPCLGSIVEALSGSERDPGLDPAWIRRISFYWEAVRNQYAAFESDLKGPASEVYLHEMPGGQFTNLKEQARSLGLETRWHQVAQAYADANQMFGDIVKVTPSSKVVGDMALMMVSQDLTVADVVSPDREVSFPESVVSMLKGDLGQPPSGWPEALQKKALKGEKPYTVRPGSLLKEADLDAERKVIEKKLEREVSDFEFASYLMYPKVFTDFALASDTYGPVSVLPTPAYFYGLADGEELFADIEKGKTLVIVNQAVSATDSQGMVTVFFELNGQPRRIKVPDRAHGATGAAVRRKAEPGNAAHVGAPMPGVISRVFVSSGQAVNAGDVLVSIEAMKMETAIHAEKDGTIAEVLVKAGDQIDAKDLLAVYGG	4	4
Rhizobium etli pyruvate carboxylase, H216N mutant (enzyme, biotin prosthetic group (enzymic biotin; residue not given)) PISKILVANRSEIAIRVFRAANELGIKTVAIWAEEDKLALHRFKADESYQVGRGPHLARDLGPIESYLSIDEVIRVAKLSGADAIHPGYGLLSESPEFVDACNKAGIIFIGPKADTMRQLGNKVAARNLAISVGVPVVPATEPLPDDMAEVAKMAAAIGYPVMLKASWGGGGRGMRVIRSEADLAKEVTEAKREAMAAFGKDEVYLEKLVERARNVESQILGDTHGNVVHLFERDCSVQRRNQKVVERAPAPYLSEAQRQELAAYSLKIAGATNYIGAGTVEYLMDADTGKFYFIEVNPRIQVEHTVTEVVTGIDIVKAQIHILDGAAIGTPQSGVPNQEDIRLNGHALQCRVTTEDPEHNFIPDYGRITAYRSASGFGIRLDGGTSYSGAIITRYYDPLLVKVTAWAPNPLEAISRMDRALREFRIRGVATNLTFLEAIIGHPKFRDNSYTTRFIDTTPELFQQVKRQDRATKLLTYLADVTVNGHPEAKDRPKPLENAARPVVPYANGNGVKDGTKQLLDTLGPKKFGEWMRNEKRVLLTDTTMRDGHQSLLATRMRTYDIARIAGTYSHALPNLLSLECWGGATFDVSMRFLTEDPWERLALIREGAPNLLLQMLLRGANGVGYTNYPDNVVKYFVRQAAKGGIDLFRVFDCLNWVENMRVSMDAIAEENKLCEAAICYTGDILNSARPKYDLKYYTNLAVELEKAGAHIIAVKDMAGLLKPAAAKVLFKALREATGLPIHFHTHDTSGIAAATVLAAVEAGVDAVDAAMDALSGNTSQPCLGSIVEALSGSERDPGLDPAWIRRISFYWEAVRNQYAAFESDLKGPASEVYLHEMPGGQFTNLKEQARSLGLETRWHQVAQAYADANQMFGDIVKVTPSSKVVGDMALMMVSQDLTVADVVSPDREVSFPESVVSMLKGDLGQPPSGWPEALQKKALKGEKPYTVRPGSLLKEADLDAERKVIEKKLEREVSDFEFASYLMYPKVFTDFALASDTYGPVSVLPTPAYFYGLADGEELFADIEKGKTLVIVNQAVSATDSQGMVTVFFELNGQPRRIKVPDRAHGATGAAVRRKAEPGNAAHVGAPMPGVISRVFVSSGQAVNAGDVLVSIEAMKMETAIHAEKDGTIAEVLVKAGDQIDAKDLLAVYGG	4	4
